From patent US20250136718A1 (MABWELL THERAPEUTICS, published 2025)

T1: cynomolgus monkey TMPRSS6 expressed on HEK293T cells, CynoTMPRSS6-(His)6 (cynomolgus monkey, UniProt Q8IU80 10-811 (human entry))
T1 chain: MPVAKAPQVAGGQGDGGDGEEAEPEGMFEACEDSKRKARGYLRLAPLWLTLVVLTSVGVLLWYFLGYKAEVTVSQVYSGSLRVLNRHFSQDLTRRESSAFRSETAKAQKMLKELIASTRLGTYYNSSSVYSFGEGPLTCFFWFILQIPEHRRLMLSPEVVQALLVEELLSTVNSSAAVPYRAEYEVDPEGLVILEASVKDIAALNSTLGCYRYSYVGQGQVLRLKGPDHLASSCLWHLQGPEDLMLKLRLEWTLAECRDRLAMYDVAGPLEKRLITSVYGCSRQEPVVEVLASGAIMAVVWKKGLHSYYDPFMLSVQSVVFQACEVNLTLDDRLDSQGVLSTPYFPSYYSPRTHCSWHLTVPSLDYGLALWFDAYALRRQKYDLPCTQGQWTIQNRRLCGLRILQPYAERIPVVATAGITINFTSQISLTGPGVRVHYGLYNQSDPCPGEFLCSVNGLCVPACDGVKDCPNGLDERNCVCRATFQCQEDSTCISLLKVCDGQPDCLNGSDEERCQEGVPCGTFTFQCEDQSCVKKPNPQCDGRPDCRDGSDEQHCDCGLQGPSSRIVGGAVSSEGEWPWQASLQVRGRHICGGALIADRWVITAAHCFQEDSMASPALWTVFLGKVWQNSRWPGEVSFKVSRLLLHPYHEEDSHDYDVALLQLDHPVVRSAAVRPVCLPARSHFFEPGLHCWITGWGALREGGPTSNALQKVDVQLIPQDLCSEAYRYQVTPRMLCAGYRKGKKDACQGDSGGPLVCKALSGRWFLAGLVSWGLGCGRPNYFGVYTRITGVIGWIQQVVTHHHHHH

T2: cynomolgus monkey TMPRSS6 expressed on HEK293T cells, CynoTMPRSS6-(His)6
T2 chain: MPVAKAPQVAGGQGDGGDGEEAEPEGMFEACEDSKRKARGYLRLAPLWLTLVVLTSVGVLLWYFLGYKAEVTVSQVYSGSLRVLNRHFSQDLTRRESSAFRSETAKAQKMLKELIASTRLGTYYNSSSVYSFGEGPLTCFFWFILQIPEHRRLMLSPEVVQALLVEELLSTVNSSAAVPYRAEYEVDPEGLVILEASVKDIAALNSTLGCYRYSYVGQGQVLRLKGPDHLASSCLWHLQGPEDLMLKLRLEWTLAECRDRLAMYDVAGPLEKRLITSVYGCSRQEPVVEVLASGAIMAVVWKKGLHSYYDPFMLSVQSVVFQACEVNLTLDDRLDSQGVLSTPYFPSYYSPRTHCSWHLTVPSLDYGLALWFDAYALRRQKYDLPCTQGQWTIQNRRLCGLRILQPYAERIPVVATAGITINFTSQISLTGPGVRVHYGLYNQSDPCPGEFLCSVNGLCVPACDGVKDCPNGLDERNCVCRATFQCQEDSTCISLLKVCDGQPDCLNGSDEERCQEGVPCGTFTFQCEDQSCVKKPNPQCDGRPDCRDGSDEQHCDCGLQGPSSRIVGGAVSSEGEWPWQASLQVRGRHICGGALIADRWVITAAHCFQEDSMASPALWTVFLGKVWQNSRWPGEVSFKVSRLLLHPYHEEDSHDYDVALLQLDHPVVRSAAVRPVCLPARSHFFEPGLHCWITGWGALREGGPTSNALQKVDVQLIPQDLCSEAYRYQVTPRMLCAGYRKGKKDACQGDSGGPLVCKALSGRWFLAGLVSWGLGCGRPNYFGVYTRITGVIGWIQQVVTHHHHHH


Molecular target: T1, cynomolgus monkey TMPRSS6 expressed on …
Assay: summary of Example 4 (cell surface ELISA)
Protocol: HEK293T cells stably expressing mouse TMPRSS6 (generated by LakePharma Inc as described above, FIGS. 4J, 4L, 4N, 4P, 4R, 4T) or cynomolgus monkey (generated in house as described above, FIGS. 4K, 4M, 4O, 4Q, 4S, 4U) were fixed with methanol (100%), and washed with dPBS (Dulbecco's phosphate-buffered saline, Corning Cellgro) before incubation with various concentrations of anti-TMPRSS6 antibodies and their humanized variants diluted in BSA medium (DMEM+1% Pen/Strep+10 mM HEPES+1 mg/ml BSA (Sigma-Aldrich)). Purified mouse IgG (FIGS. 4J-4O) or Human IgG1 (FIGS. 4P-4U) was used as a control. After incubation, cells were washed with BSA medium and then incubated with goat anti-mouse (Invitrogen, FIGS. 4J-4O) or anti-human (Millipore, FIGS. 4P-4U) IgG conjugated with HRP as a 2° antibody. Finally, cells were washed with dPBS to remove unbound antibody and color developed with ELISA liquid substrate (Sigma-Aldrich), followed by stopping the reaction with addition of the same volume of […] 1M H₂SO₄. Bound antibody was measured by absorbance at OD₄₅₀ₙₘ.

Binder	binding result
humanized anti-TMPRSS6 antibody variant hzMWTx-001 Var (antibody, human IgG1, kappa, N297A, V domains shown, Human IgG1 / kappa) VH: EVQLVQSGAEVKKPGASVKVSCKASGYTFTSYWITWVRQAPGQRLEWIGNIYPGSGSTYYNEKFKSKATITRDTSSRTAYMELSSLRSEDTAVYYCAPYDADYAMDYWGQGTLVTVSS VL: DIQMTQSPSSLSASVGDRVTITCKASQDISNYLSWFQQKPGKAPKLLIYRANRLVEGVPSRFSGSGSGTDFTLTISSLQPEDFATYFCLQYDEFPLTFGGGTKVEIKR	binds
humanized anti-TMPRSS6 antibody variant hzMWTx-003 Var (antibody, human IgG1, kappa, L234A L235A, V domains shown, Human IgG1 / kappa) VH: QVQLVQSGAEVKKPGASVKVSCKASGFNIEDYYMHWVRQAPGQRLEWMGRIDPEDAETTYSPKFQGRVTIIPDTSANTAYMELSSLRSEDTAVYYCARSIYLDPMDYWGQGTLVTVSS VL: DIQMTQSPKSLSASVGDRVTITCRASQDVTTALAWYQQKPGQSPKLLIYWATTRHSGVPSRFSGSGSGTDFTLTISSLQPEDFATYYCQQHYSTPYTFGQGTKLEIKR	binds
humanized anti-TMPRSS6 antibody variant hzMWTx-002 Var (antibody, human IgG1, kappa, N297A, V domains shown, Human IgG1 / kappa) VH: EVQLVQSGAEVKKPGASVKVSCKASGFNIKDYYIHWVRQATGQGLEWMGRIDPEDAESEYAPKFQGRVTITADTSTDTAYMELSSLRSEDTAVYYCTRGDSMMVTYFDYWGQGTLVTVSS VL: DIQMTQSPSSLSASVGDRVTITCKASQDVSTAVAWYQQKPGKAPKLLIYWAFTRHTGVPSRFSGSGSGTDYALTISSLQPEDFATYYCQQHYRSPWTFGGGTKVEIKR	binds

Molecular target: T2, cynomolgus monkey TMPRSS6 expressed on …
Assay: cell surface ELISA

Binder	EC50
MWTx-003 anti-TMPRSS6 monoclonal antibody (antibody, mouse IgG2b, kappa, V domains shown, Mouse monoclonal antibody from hybridoma (ATCC PTA-126761); The recombinant version r4K12B has the same HC and LC; also called r4K12B; recombinant MWTx-003) VH: EVQLQQSGAELVKPGASVKLSCTASGFNIEDYYIHWVKERTEQGLEWIGRIDPEDGETTYAPQFQGKATIIPDTSSNTAYMQLSSLTSEDAAVYYCARSIYLDPMDYWGQGTSVTVSS VL: DIVMTQSHKFMSTSVGDRVSITCKASQDVTTAVAWYQQKPGQSPKILIYWATTRHTGVPDRFTGSISGTTYILTISSVQAEDLALYYCQQHYSTPYTFGGGTKLEIKR	0.09 µg/mL
MWTx-001 anti-TMPRSS6 monoclonal antibody (antibody, mouse IgG2a, kappa, V domains shown, Mouse monoclonal antibody from hybridoma (ATCC PTA-126759)) VH: QVQLQQPGAELAKPGASVKMSCKASGYTFTSYWITWVKQRPGQDLEWIGNIYPGSGSTYYNEKFKSKATLTVDTSSRTAYMQLSSLTSADSAVYYCAPYDSDYAMDYWGQGTSVTVSS VL: DIKMTQSPSSMYASLGERVTITCKASQDINNYLSWFQQKPGKSPKTLIYRANRLVDGVPSRVSGSGSGQDYSLTISSLEYEDVGIYFCLQYDEFPLTFGAGTKLELKR	0.1 µg/mL
MWTx-002 anti-TMPRSS6 monoclonal antibody (antibody, mouse IgG2b, kappa, V domains shown, Mouse monoclonal antibody from hybridoma (ATCC PTA-126760)) VH: EVQLQQSGAELVKPGASVKLSCTASGFNIKDYYIHWVKERTEQGLEWFGRIDPEDGESEYAPKFQGKATLTADTSSNTAYLQLSSLTSEDTAVYYCTRGDSMMVTYFDYWGQGTTLTVSS VL: DIVMTQSHKFMSTSVGDRVSITCKASQDVSTAVAWYQQKPGQSPKLLIYWAFTRHTGVPDRFTSTGSGTDYALTISSVQAEDLALYYCQQHYRSPWTFGGGTKLEIKR	0.06 µg/mL
